This is an account of results in patent publication US6586252B2, “Nucleic acid molecule encoding the catalytic subunit of a protein phosphatase 2A that regulates flowering time in plants” (Korea Kumho Petrochemical Co., Ltd., priority 2001, dated 2003).

The test concerns phosphorylated oat phytochrome A. Nature of the test: Dephosphorylation of autophosphorylated oat phytochrome A by recombinant PP2AC-JD (SDS-PAGE, autoradiography). Type of test: biochemical. How it is done: The oat phytochrome A was first autophosphorylated in the presence of γ[32P]ATP under the light conditions indicated. The recombinant PP2AC-JD protein was expressed via the pGEX-4T-1 expression vector in E. coli strain BL21 as a GST fusion, and the GST tag domain was cleaved out by thrombin digestion. (A) Cation requirements for the PP2AC-JD activity. One μg of the phosphorylated phytoclirome A was incubated with 0.2 μg of the recombinant PP2AC-JD for 30 minutes at room temperature, analysed on 12% SDS-PAGE, and subject to autoradiography. (B) Spectral form-dependent dephosphorylation of the phytochrome A. The Pfr form was a better substrate for the PP2AC-JD than the Pr form.
The enzymatic activity of the protein phosphatase encoded by said nucleic acid molecule can be assayed using a phosphorylated protein, preferentially autophosphorylated phytochromes. The reaction mixture is then analyzed on SDS-PAGE and visualized by autoradiography.
The PCR product containing the PP2AC-JD gene was double-digested with EcoRI and XhoI and incorporated into the pGEX-4T-1 E. coli expression vector, resulting in pG-PP2AC-JD. In this expression construct, the PP2AC-JD gene sequence was in frame fused to the glutathione S-transferase (GST) coding sequence at the N-terminus. The vector construct was transformed into E. coli strain BL21, and the transformants were selected with 100 μg/ml ampicillin. RB medium, rather than LB, was used for induction. Two hundred fifty ml of RB (0.5% yeast extract, 1% tryptone, 0.5% NaCl, 0.2% glucose, pH 7.5 with NaOH) supplemented with ampicillin (100 μg/ml) was inoculated with 3 ml of freshly grown cell culture and incubated at 20° C. with shaking at 250 rpm to an OD600 of 0.6. Expression was induced by adding IPTG (1 μM) and by further shaking at 20° C. for 5 hours. After centrifugation at 5000×g for 5 minutes, the cell pellet was washed in ice-cold 1×Phosphate-Buffered Saline (PBS, 140 mM NaCl, 2.7 mM KCI, 10 mM Na2HPO4, 1.8 mM KH2PO4, pH7.3). […]

B1: PP2AC-JD: recombinant catalytic subunit of a pea protein phosphatase 2A (SEQ ID NO: 2), expressed in E. coli BL21 (protein)
chain: MDLDQWISKVKDGQHLLEDELQLLCEYVKEILIEESNVQPVNSPVTVCGDIHGQFHDLMKLFQTGGHVPETNYIFMGDFVDRGYNSLDVFTILLLLKARYPANITLLRGNHESRQLTQVYGFYDECQRKYGNANATRYCTDVFDYLTLSAIIDGTVLCVHGGLSPDIRTIDQIRVIERNCEIPHEGPFCDLMWSDPEDIETWAVSPRGAGWLFGSRVTSEFNHINNLDLVCRAHQLVQEGLKYMFQDKGLVTVWSAPNYCYRCGNVASILSFNENMEREVKFFTETEENNQMRGPRTGVPYFL
As for B1, the “stimulatory effect of other cations on PP2AC-JD activity” value (cations other than Fe2+ or Zn2+) is reported as “did not show any significant stimulatory effects”. In addition, the “dephosphorylation of phosphorylated oat phytochrome A” value (in the presence of Fe2+ or Zn2+, 1 μg phytochrome A, 0.2 μg PP2AC-JD, 30 minutes, room temperature) is on record as “efficiently dephosphorylated”. In addition, under “phytochrome A autophosphorylated under different light conditions”, the “dephosphorylation of Pfr phytochrome A compared with the Pr spectral form” value is “more efficiently dephosphorylated”.
